Test results published in patent EP4714976A1 (Sunshine Lake Pharma Co., Ltd., dated 2026).

B1: 1B8 scFv-Fc (Fc fusion)
chain: QIQLQQSGAELVKPGASVKMSCKASGYTFASYNLHWVKQTPGQGLEWIGLIYPENGDTSYNQKFKGKATLTADTSSTTAYIQLSSLTSEDSAVYFCARGGFDYWGQGTSLTVSSGGGGSGGGGSGGGGSDIKMTQSPASLSASVGETVTITCGASENIYGALNWYQRKQGKSPQLLIYGATNLADGMSSRFSGSGSGRQYSLKISSLHPDDVATYYCQNVLSTPYTFGGGTKLEIKESKYGPPCPPCPAPEAAGGPSVFLFPPKPKDTLMISRTPEVTCVVVDVSQEDPEVQFNWYVDGVEVHNAKTKPREEQFNSTYRVVSVLTVLHQDWLNGKEYKCKVSNKGLPSSIEKTISKAKGQPREPQVYTLPPSQEEMTKNQVSLTCLVKGFYPSDIAVEWESNGQPENNYKTTPPVLDSDGSFFLYSKLTVDKSRWQEGNVFSCSVMHEALHNHYTQKSLSLSLG
notes: scFv-Fc dimer
B2: 3E2 scFv-Fc (Fc fusion)
chain: EIQLQQSGAELVKPGASVKMSCKASGYTFSFYNMHWVKRTPGQGLEWIGLIYPDNGDTSYNQKFKGKATLTADTSSSTAYMQLSSLTSEDSAVYYCARGGLDYWGQGTSLTVSSGGGGSGGGGSGGGGSNIVMTQSQKFMSTSVGDRVSVTCKASQNVGTNVAWYQQKPGQSPKALIYSASYRYTGVPDRFTGSGSGTDFTFTISSVQAEDLAVYYCQQHYSTPYTFGGGTKLEIKESKYGPPCPPCPAPEAAGGPSVFLFPPKPKDTLMISRTPEVTCVVVDVSQEDPEVQFNWYVDGVEVHNAKTKPREEQFNSTYRVVSVLTVLHQDWLNGKEYKCKVSNKGLPSSIEKTISKAKGQPREPQVYTLPPSQEEMTKNQVSLTCLVKGFYPSDIAVEWESNGQPENNYKTTPPVLDSDGSFFLYSKLTVDKSRWQEGNVFSCSVMHEALHNHYTQKSLSLSLG
notes: scFv-Fc dimer
B3: 3E1 scFv-Fc (Fc fusion)
chain: QVQLQQPGAEVVKPGASVKMSCKASGYTFTDYYIHWVKQTPGQGLEWIGAIYPDNGDTSYNQKFKVKATLTADKSSSTAYMQLSSLTSEDSAVYYCARAFTYWGQGTLVTVSAGGGGSGGGGSGGGGSDILITQSPASLSASVGETVTITCGASENIYGALNWYQRKQGKSPQLLIYGATNLADGMSSRFSGSGSGRQYSLKISSLHPDDVATYYCQNVLSTPYTFGGGTKLEIKESKYGPPCPPCPAPEAAGGPSVFLFPPKPKDTLMISRTPEVTCVVVDVSQEDPEVQFNWYVDGVEVHNAKTKPREEQFNSTYRVVSVLTVLHQDWLNGKEYKCKVSNKGLPSSIEKTISKAKGQPREPQVYTLPPSQEEMTKNQVSLTCLVKGFYPSDIAVEWESNGQPENNYKTTPPVLDSDGSFFLYSKLTVDKSRWQEGNVFSCSVMHEALHNHYTQKSLSLSLG
notes: scFv-Fc dimer

Experiments:
FGFR2b on KATO III cells = biological target: T1, FGFR2b on KATO III cells (human, UniProt P21802-3 22-822); experiment: flow cytometry, KATO III cells
T1 construct: whole, on cells; also called KATO III cells that overexpress FGFR2b

[1] = biological target: T2, recombinant cynomolgus monkey FGFR2b (cynomolgus monkey); experiment: ELISA, antibody 1ug/mL
T2 construct: extracellular domain; bought; also called cynomolgus macaque FGFR2b

FGFR4 (acro) [2] = biological target: T3, FGFR4 (acro) (UniProt P22455 22-369); experiment: ELISA
T3 sequence (looked up): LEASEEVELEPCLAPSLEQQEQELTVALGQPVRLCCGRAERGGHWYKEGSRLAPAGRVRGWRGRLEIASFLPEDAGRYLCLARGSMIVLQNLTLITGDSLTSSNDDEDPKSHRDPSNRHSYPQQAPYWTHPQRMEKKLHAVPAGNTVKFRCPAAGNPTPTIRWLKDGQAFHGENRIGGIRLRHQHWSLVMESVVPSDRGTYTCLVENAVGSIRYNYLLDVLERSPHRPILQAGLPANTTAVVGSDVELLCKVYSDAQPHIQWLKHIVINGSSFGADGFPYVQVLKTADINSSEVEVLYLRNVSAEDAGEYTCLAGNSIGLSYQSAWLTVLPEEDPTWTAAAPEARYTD

FGFR2c (acro) [3] = biological target: T4, FGFR2c (acro) (UniProt P21802 22-377); experiment: ELISA
FGFR2c (acro) [4] = biological target: T4, FGFR2c (acro); experiment: ELISA, antibody 10 µg/mL
FGFR4 (acro) [5] = biological target: T3, FGFR4 (acro); experiment: ELISA, antibody 10 µg/mL
[6] = biological target: T5, human FGFR2b (Kaixia Biotechnology, catalog number FGR-HM1BB) (human, UniProt P21802-3 22-378); experiment: ELISA, FGFR2b coated at 1 µg/ml
T5 construct: extracellular domain; bought; also called hFGFR2b; human FGFR2b protein

[7] = biological target: T5, human FGFR2b (Kaixia Biotechnology, …); experiment: BLI, antibody on AHC2 sensor

T5 sequence (P21802 other isoform, or with tags, fused parts or gaps): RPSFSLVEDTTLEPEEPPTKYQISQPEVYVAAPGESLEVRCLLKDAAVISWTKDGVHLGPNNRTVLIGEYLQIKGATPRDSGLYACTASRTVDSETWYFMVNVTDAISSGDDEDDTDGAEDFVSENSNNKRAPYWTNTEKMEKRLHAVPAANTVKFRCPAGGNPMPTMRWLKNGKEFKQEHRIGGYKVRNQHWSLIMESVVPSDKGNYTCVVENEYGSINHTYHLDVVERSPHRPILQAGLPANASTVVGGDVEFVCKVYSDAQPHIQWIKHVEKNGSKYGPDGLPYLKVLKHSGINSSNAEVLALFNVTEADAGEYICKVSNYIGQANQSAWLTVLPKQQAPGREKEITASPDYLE
T4 sequence (P21802 22-377): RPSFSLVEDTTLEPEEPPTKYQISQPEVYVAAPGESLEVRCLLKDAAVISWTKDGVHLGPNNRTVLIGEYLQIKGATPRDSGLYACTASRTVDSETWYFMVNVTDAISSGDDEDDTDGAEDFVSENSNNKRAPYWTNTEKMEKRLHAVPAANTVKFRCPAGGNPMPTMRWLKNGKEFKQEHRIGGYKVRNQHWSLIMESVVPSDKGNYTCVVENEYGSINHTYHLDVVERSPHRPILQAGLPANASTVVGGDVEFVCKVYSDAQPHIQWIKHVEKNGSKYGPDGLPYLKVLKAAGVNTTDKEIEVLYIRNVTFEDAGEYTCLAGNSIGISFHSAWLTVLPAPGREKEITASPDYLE
T1 sequence (P21802 other isoform, or with tags, fused parts or gaps): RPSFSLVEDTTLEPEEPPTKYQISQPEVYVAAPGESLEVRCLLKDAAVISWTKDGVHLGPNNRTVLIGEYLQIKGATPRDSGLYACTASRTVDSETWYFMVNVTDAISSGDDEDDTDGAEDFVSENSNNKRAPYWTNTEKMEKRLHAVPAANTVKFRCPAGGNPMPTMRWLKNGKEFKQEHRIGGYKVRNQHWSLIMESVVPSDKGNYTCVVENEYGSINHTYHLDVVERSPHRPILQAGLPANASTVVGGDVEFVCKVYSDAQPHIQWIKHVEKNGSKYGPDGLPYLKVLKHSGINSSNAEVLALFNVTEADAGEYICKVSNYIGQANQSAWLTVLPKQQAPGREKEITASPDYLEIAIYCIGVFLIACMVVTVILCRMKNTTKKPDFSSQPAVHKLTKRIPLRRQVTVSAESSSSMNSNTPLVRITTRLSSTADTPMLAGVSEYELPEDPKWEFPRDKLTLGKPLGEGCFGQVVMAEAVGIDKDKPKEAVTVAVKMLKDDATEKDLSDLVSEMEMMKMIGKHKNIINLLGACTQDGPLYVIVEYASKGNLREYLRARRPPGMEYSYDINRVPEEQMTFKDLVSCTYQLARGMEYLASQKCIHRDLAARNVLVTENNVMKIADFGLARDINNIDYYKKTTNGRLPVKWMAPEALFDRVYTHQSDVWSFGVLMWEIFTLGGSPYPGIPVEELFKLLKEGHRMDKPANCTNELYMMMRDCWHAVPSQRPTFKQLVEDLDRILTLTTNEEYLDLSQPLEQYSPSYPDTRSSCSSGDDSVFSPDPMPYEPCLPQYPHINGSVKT

Binder	EC50 (FGFR2b on KATO III cells) [µg/mL]	OD (450 nm) value [1]	binding result (FGFR4 (acro) [2])	binding result (FGFR2c (acro) [3])	OD (450 nm) value (FGFR2c (acro) [4])	OD (450 nm) value (FGFR4 (acro) [5])	EC50 [6] [µg/mL]	Kd [7] [nM]	koff [7] [s⁻¹]	kon [7] [M⁻¹ s⁻¹]
B1	0.133	3.25	no binding (tested: 10 µg/mL)	no binding (tested: 10 µg/mL)	0.076	0.171	0.0273	13.3	0.00629	472000
B2	0.236	3.35	no binding (tested: 10 µg/mL)	no binding (tested: 10 µg/mL)	0.138	0.149	0.0235	4.45	0.0011	247000
B3	0.132	3.34	no binding (tested: 10 µg/mL)	no binding (tested: 10 µg/mL)	0.118	0.096	0.0156	4.5	0.00152	337000
